Data published in patent publication US20080317723A1, “LYMPHATIC ENDOTHELIAL CELLS MATERIALS AND METHODS” (VEGENICS LIMITED, priority 2001, published 2008).

How the values were obtained:
CREB = CREB Ser133 phosphorylation in HMVE cells, Western blot; format: cell-based, human; conditions: HMVECs
Procedure: Western blot analysis. Endothelial cells were cultured on 35 mm dishes to near confluence, starved for 24 h in serum free medium and stimulated as indicated. Wortmannin ([…]), LY294002 ([…]), PD98059 (10-25 μM) or GF109203X (2.5-5 μM) were added 1-3 h before stimulation, where indicated. DMSO, into which the inhibitors were dissolved, was used as a control. After the stimulation, the cells were lysed in lysis buffer (50 mM HEPES, pH 7.5, 150 mM NaCl, 10 mM EDTA, 100 mM NaF, 1% TritonX-100 supplemented with 2 mM Na3VO4, 0.5 mM PMSF, 100 U/ml approtinin and 10 μg/ml leupeptin). Clarified lysates were separated by SDS-PAGE, transferred to nitrocellulose and immunoblotted using the phosphospecific antibodies for Akt-Ser473, Akt-Thr308, p42/44 MAPK-Thr202/Tyr204 or CREB-Ser133. The bound antibodies were detected using horseradish peroxidase conjugated secondary antibodies and enhanced chemiluminescence detection system. The blots were stripped and reprobed with antibodies against Akt, MAPK or CREB for quantification by reading the optical densities of the signals with Multi-Analyst 2.0.1 program (Bio-Rad).
The p42/p44 MAPK activation was detected by Western blotting using phospho-Thr202/Tyr204-MAPK specific antibodies and CREB phosphorylation using phospho-Ser133 specific antibodies. The growth factor concentrations used were: VEGF 10 ng/ml, VEGF-C 100 ng/ml and VEGF-C156S 500 ng/ml. […] Effects of inhibition of protein kinase C by GF109203X, MEK1 by PD98059 and PI-3 kinase by LY294002 on p42/p44 MAPK Thr202/Tyr204 phosphorylation, CREB Ser133 phosphorylation and Akt Ser473 phosphorylation in HMVE cells. The growth factor concentrations used were: VEGF 1 ng/ml, VEGF-C 10 ng/ml and VEGF-C156S 500 ng/ml

hVEGFR-2 = biological target: T1, hVEGFR-2 (Homo sapiens, UniProt P35968); test: Biosensor (BIAcore) analysis of ligand binding to immobilized VEGFR-2; conditions: hVEGFR-2 bivalent immunoglobulin fusion protein immobilized; global fitting, 1:1 Langmuirian model with mass transfer
T1 construct: Receptor domains were coupled to the carboxymethylated dextran layer of a CM5 sensor chip
Procedure: Biosensor Analysis. All preparations were analysed for homogeneity and buffer exchanged by micropreparative size exclusion HPLC using a Superose 12 (3.2/30) column installed in a SMART system (Amersham Pharmacia Biotech, Uppsala, Sweden) immediately prior to use (Nice and Catimel, Bioessays, 21:339-352, 1999). The concentrations of VEGF-C and VEGF-D were determined by absorbance at 280 nm using E280 1% 1 cm of 0-65. Receptor domains were coupled to the carboxymethylated dextran layer of a CM5 sensor chip using standard amine coupling chemistry (Nice and Catimel, Bioessays, 21:339-352, 1999) for analysis of ligad binding using a BIAcore 2000 optical biosensor (BIAcore, Uppsala, Sweden). The levels immobilized were 3,000 RU and 7,000 RU for VEGFR-2 and VEGFR-3, respectively. Following immobilization, residual activated ester groups were blocked by treatment with 1 M ethanolamine hydrochloride pH 8.5 followed by washing with 10 mM diethylamine to remove non-covalently bound material. 10 mM diethylamine or 10 mM HCl was used to regenerate the sensor surface between analyses for VEGF-D or VEGF-C binding, respectively. Samples were diluted in running buffer (10 mM HEPES pH 7.4, 150 mM NaCl, 3.4 mM EDTA, 0.005% Tween 20). The apparent binding affinities of VEGF-C and VEGF-C156S to receptor domains were determined by analysis of the initial dissociation phase to obtain the kd, which was then used to constrain a global analysis of the association region of the curves, assuming a 1:1 Langmuirian model. Data were analysed using BLAevaluation 3.0 (BIAcore, Uppsala, Sweden) as described previously (Catimel et al., J. Chromatogr., 776:15-30, 1997).
Biosensor analysis was used to further investigate the interactions of VEGF-C and VEGF-C156S with VEGFR-2 and VEGFR-3. Analysis of the biosensor binding curves confirmed that VEGF-C156S binds only to the extracellular domain of VEGFR-3, whereas wild type VEGF-C bound to both VEGFR-2 and VEGFR-3 receptors (FIG. 1D-FIG. 1G). […] However, in both assays the affinity of VEGF-C was higher towards VEGFR-3 than towards VEGFR-2.

T1 sequence (P35968 20-764 limits assumed): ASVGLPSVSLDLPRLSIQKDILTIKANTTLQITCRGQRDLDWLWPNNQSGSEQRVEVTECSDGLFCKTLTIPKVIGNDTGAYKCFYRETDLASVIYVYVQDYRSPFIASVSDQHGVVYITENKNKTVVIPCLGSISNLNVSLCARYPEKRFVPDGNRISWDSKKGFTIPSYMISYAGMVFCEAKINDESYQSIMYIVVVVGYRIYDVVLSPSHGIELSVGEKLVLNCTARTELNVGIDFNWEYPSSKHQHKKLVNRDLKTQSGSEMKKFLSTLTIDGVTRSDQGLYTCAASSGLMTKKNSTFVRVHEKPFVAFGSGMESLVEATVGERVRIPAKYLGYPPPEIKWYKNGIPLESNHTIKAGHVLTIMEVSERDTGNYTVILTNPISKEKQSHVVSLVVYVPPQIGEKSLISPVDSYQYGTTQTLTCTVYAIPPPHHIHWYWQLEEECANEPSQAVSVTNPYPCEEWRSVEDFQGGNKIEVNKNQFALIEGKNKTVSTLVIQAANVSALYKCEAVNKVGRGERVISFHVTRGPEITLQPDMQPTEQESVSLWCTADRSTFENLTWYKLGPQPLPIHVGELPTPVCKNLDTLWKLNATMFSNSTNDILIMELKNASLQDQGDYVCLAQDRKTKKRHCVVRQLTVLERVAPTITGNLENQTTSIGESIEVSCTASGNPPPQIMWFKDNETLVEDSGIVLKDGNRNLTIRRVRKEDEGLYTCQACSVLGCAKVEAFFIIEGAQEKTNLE

Row | KD (hVEGFR-2) | Ka (hVEGFR-2) | Kd (hVEGFR-2) | Molecule | CREB phosphorylation on growth factor stimulation (CREB)
1 |  |  |  | VEGF | detected
2 | no binding | no binding | no binding | VEGF-C156S: VEGFR-3 specific mutant form of VEGF-C, cysteine 156 changed into serine; recombinant human (Thr103 to Ile225) (protein, UniProt P49767 103-225, looked up, variant C156S) TEETIKFAAAHYNTEILKSIDNEWRKTQCMPREVCIDVGKEFGVATNTFFKPPSVSVYRCGGCCNSEGLQCMNTSTSYLSKTLFEITVPLSQGPKPVTISFANHTSCRCMSKLDVYRQVHSII | 
